Data set [1] deals with CC(C)C[C@H](NC(=O)[C@H](Cc1c[nH]cn1)NC(=O)[C@H](Cc1ccccc1)NC(=O)[C@H](CO)NC(=O)[C@H](C)NC(=O)[C@H](CCCNC(=N)N)NC(=O)[C@H](CCCNC(=N)N)NC(=O)CNC(=O)[C@H](CC(C)C)NC(=O)[C@H](CO)NC(=O)[C@H](C)NC(=O)[C@H](CO)NC(=O)[C@H](CCCNC(=N)N)NC(=O)[C@H](CC(C)C)NC(=O)[C@H](Cc1ccccc1)NC(=O)CNC(=O)[C@@H](N)CCCNC(=N)N)C(=O)O. Kind of data set: purified protein, by the assay type. The following applies: other: ADP-Glo; 3 nM PKAc, 1 mM ATP, 5 mM Mg2+, substrate 0-256 μM, room temperature 30 min; Michaelis-Menten fit; mean ± SD of n = 3 or 4; pH 7.4.
Method: (§1) We used enzyme kinetics to investigate the activity of catalytic subunit of PKA (PKAc) toward the three target sites within the C terminus of CaV1.2. We performed discontinuous kinase assays using an ADP-GloMax Assay kit.
(§2) Kinase assays were conducted using an ADP-Glo Kinase Assay Kit (Promega). […] Therefore, we performed assays with excess ATP (1 mM) and Mg^2+ (5 mM) to saturate PKAc prior to substrate binding. Reagents were prepared as described in the kit, aliquoted, and frozen at −20 °C prior to use. Reactions were conducted in 384-well solid white polystyrene microplates (Corning). Peptide substrates and EFPreIQ were dissolved and/or diluted to 800 μM using 50 mM Hepes (pH 7.4), 150 mM KCl, 5 mM MgCl2, and 4 mM TCEP. […] For peptides lacking tryptophan, the amount of volume needed to achieve a concentration of 800 μM was calculated prior to dissolving. The peptides/substrate was 2-fold serially diluted using the same buffer to create 11 reactions per curve ranging from 0 to 256 μM. ATP was added to each reaction to achieve a final concentration of 1 mM. Reactions were initiated by the addition of thawed PKAc at a final concentration of 3 nM at a final well volume of 20 μl. After allowing reactions to occur at room temperature for 30 min, 3 × 5 ml from each reaction in a curve was taken and mixed with 5 ml ADP-Glo Reagent for a total of three technical replicates per biological replicate. After 40 min, 10 ml of kinase detection reagent was added to each technical replicate and, after waiting 60 min, relative luminescence unit were measured using a VICTOR X4 Multilabel Plate Reader (PerkinElmer).
(§3) The relative luminescence unit values were converted to specific activity values via interpolation of a standard curve that was created in accordance with the manufacturer’s protocol. The three technical replicates were averaged to calculate a biological replicate value and plotted against peptide concentration using GraphPad 9 (Prism) software (https://www.graphpad.com/updates/prism-900-release-notes). Technical replicate values resulting from experimental error were removed from the dataset and subsequent averaging. […] The Michaelis–Menten kinetics fitting function was used to generate a nonlinear regression to calculate both a Km constant and Vmax value for each biological replicate curve. These Km constant and Vmax values were averaged and SDs are reported. Figures displaying data points and Michaelis–Menten curves depict the average specific activity values calculated from all biological replicates in the three or four experiments (n = 3 or n = 4) per peptide (n = 4 for Ser1981 and Ser272 peptides, n = 3 for all others).

Data set [2] has as its system C[C@H](NC(=O)CN)C(=O)NCC(=O)N[C@@H](CCCNC(=N)N)C(=O)N[C@@H](CCC(=O)O)C(=O)N[C@@H](CCCNC(=N)N)C(=O)N[C@@H](CC(=O)O)C(=O)N[C@@H](CCCNC(=N)N)C(=O)N[C@@H](CCCNC(=N)N)C(=O)N[C@@H](CCCNC(=N)N)C(=O)NCC(=O)N[C@@H](CO)C(=O)N[C@H](C(=O)N1CCC[C@H]1C(=O)N[C@@H](Cc1c[nH]c2ccccc12)C(=O)O)[C@@H](C)O. Kind of data set: purified protein, by the assay type. The following applies: other: ADP-Glo; 3 nM PKAc, 1 mM ATP, 5 mM Mg2+, substrate 0-256 μM, room temperature 30 min; Michaelis-Menten fit; mean ± SD of n = 3 or 4; pH 7.4.
Method: as §1, §2, §3

For the substance “PKAc (catalytic subunit of PKA, PKAcα 16-351) (Mus musculus)”, in data set [1], the Km amounted to 8.1 ± 2.5 µM, the kcat came to 15.5 ± 1.2 s⁻¹ and the kcat/Km worked out at 1.9e+06 ± 600000 M⁻¹ s⁻¹. In data set [2], the Km worked out at 19.0 ± 6.7 µM, the turnover number (kcat) is 16.2 ± 0.8 s⁻¹ and the kcat/Km was 900000 ± 300000 M⁻¹ s⁻¹.

The values above are taken from PMC11728977, “Crystallographic, kinetic, and calorimetric investigation of PKA interactions with L-type calcium channels and Rad GTPase” (The Journal of Biological Chemistry, 2024).
